± gives the uncertainty stated by the source.
Assay: self-splicing fitness, log relative to wild type (ln ratio); higher = more splicing; Tetrahymena group I intron in knt gene, E. coli kanamycin selection, DiMSum; sequences stand for … in CUCUCU…GGAGGGAAAAGUUAUCAGGCAUGCACCUGGUAGCUAGUCUUUAAACCAAUAGAUUGCAUCGGUUUAAAAGGCAAGACCGUCAAAUUGCGGGAAAGGGGUCAACAGCCGUUCAGUACCAAGUCUCAGGGGAAACUUUGAGAUGGCCUUGCAAAGGGUAUGGUAAUAAGCUGACGGACAUGGUCCUAACCACGCAGCCAAGUCCUAAGUCAACAGAUCUUCUGUUGAUAUGGAUGCAGUUCACAGACUAAAUGUCGGUCGGGGAAGAUGUAUUCUUCUCAUAAGAUAUAGUCGGACCUCUCCUUAAUGGGAGCUAGCGGAUGAAGUGAUGCAACACUGGAGCCGCUGGGAACUAAUUUGUAUGCGAAAGUAUAUUGAUUAGUUUUGGAGUACUCGUGGUCG
Summary of the method: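 Six replicate transformations of E. coli BL21(DE3) with a pET-22b(+) library were grown overnight at 37°C or 30°C. The library randomised all eight P1ex-region intron nucleotides, the intron lying in the knt kanamycin-resistance gene, and plates were LB agar with or without 25 μg/mL kanamycin plus 100 μg/mL carbenicillin, 50 μM IPTG and 0.2% rhamnose. Pooled colonies were amplicon-sequenced on an Illumina HiSeq 2500, and fitness is the DiMSum error-weighted combination of wild-type-normalised replicate fold changes, kanamycin versus none.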

Sequence | self-splicing fitness (ln) (30 °C) | self-splicing fitness (ln) (37 °C)
GACUAGCAAUAUUACGCGCC | -2.11 ± 0.32 | -0.0214 ± 0.39
GUCUAGCAAUAUUACGUCCU | -0.102 ± 0.16 | -0.136 ± 0.14
ACUAAGCAAUAUUACGUCGA | -1.04 ± 0.13 | -1.45 ± 0.12
ACACAGCAAUAUUACGUGUC | -3.6 ± 0.12 | -3.69 ± 0.2
AGCAAGCAAUAUUACGGGUG | -1.36 ± 0.056 | -0.789 ± 0.076
GUUGAGCAAUAUUACGCCAU | – | -1.09 ± 0.35
CGCUAGCAAUAUUACGAGUC | -1.8 ± 0.13 | -1.01 ± 0.15
UGCCAGCAAUAUUACGUGCU | -3.14 ± 0.11 | -1.48 ± 0.1
CUCCAGCAAUAUUACGUGCG | -3.63 ± 0.27 | -1.84 ± 0.18
UUUGAGCAAUAUUACGAAAA | -2.31 ± 0.28 | -1.21 ± 0.24
GGUCAGCAAUAUUACGGACC | -3.67 ± 0.18 | -2.08 ± 0.22
UCUUAGCAAUAUUACGGGGA | -1.1 ± 0.15 | -1 ± 0.16
CACUAGCAAUAUUACGUUUC | -4.29 ± 0.3 | -1.98 ± 0.29
ACCCAGCAAUAUUACGGCGC | -0.619 ± 0.062 | 0.132 ± 0.096
AGUAAGCAAUAUUACGGGGA | -3.89 ± 0.31 | -2.3 ± 0.3
GCGCAGCAAUAUUACGAUUU | -1.07 ± 0.094 | 0.585 ± 0.11
CUGUAGCAAUAUUACGCUCG | -1 ± 0.18 | -0.773 ± 0.25
CCGUAGCAAUAUUACGUUGU | -3.87 ± 0.16 | -2.3 ± 0.18
CUCUAGCAAUAUUACGGAUU | -3.5 ± 0.21 | -2.75 ± 0.18
CGCUAGCAAUAUUACGGCGC | -1.1 ± 0.29 | –
GCAGAGCAAUAUUACGACCU | – | -1.59 ± 0.42
AAGGAGCAAUAUUACGCAAG | -1.2 ± 0.38 | -1.45 ± 0.49
CCAAAGCAAUAUUACGUGUA | -3.72 ± 0.14 | -1.97 ± 0.12
AACGAGCAAUAUUACGAUGG | -3.27 ± 0.16 | -3 ± 0.26
AUAGAGCAAUAUUACGGCAG | -2.15 ± 0.19 | -1.37 ± 0.16

Sequence | self-splicing fitness (ln) (30 °C) | self-splicing fitness (ln) (37 °C)
GGCUAGCAAUAUUACGACAC | -0.572 ± 0.11 | 0.6 ± 0.16
CGGAAGCAAUAUUACGAUUC | -3.95 ± 0.43 | -2.28 ± 0.45
UGCGAGCAAUAUUACGGCAU | -2.64 ± 0.27 | –
UAAUAGCAAUAUUACGAUUU | -2 ± 0.11 | -1.13 ± 0.11
GAUGAGCAAUAUUACGCUGC | – | -1.25 ± 0.48
GGGAAGCAAUAUUACGGGAC | -2.61 ± 0.21 | -3.45 ± 0.21
ACGUAGCAAUAUUACGUAGC | -3.34 ± 0.27 | -2.62 ± 0.35
UGGUAGCAAUAUUACGGCGG | -0.708 ± 0.082 | -0.0108 ± 0.1
GAUGAGCAAUAUUACGUGCU | -2.91 ± 0.44 | –
CCGGAGCAAUAUUACGAGCU | -2.94 ± 0.35 | -1.84 ± 0.49
GCGUAGCAAUAUUACGUAUA | -2.15 ± 0.26 | -1.52 ± 0.21
GAACAGCAAUAUUACGGGCG | -1.68 ± 0.086 | -0.0108 ± 0.097
UCCGAGCAAUAUUACGAGGA | -3.04 ± 0.25 | -2.5 ± 0.29
UGUCAGCAAUAUUACGCCUG | 0.351 ± 0.072 | 0.582 ± 0.11
GUGAAGCAAUAUUACGACAC | -1.1 ± 0.12 | 0.386 ± 0.18
CCACAGCAAUAUUACGCCUA | -2.47 ± 0.28 | -2.79 ± 0.34
UGACAGCAAUAUUACGUAUU | -3.43 ± 0.15 | -1.78 ± 0.11
CUCCAGCAAUAUUACGCGUG | -2.19 ± 0.075 | -1.29 ± 0.085
UUCUAGCAAUAUUACGGUCG | -0.638 ± 0.067 | 0.00892 ± 0.09
ACCCAGCAAUAUUACGUGGU | -3.89 ± 0.11 | -2.76 ± 0.14
GUCGAGCAAUAUUACGAGUG | -1.62 ± 0.088 | -1.85 ± 0.11
AUCUAGCAAUAUUACGGAAA | -2.23 ± 0.2 | -1.66 ± 0.18
UCCUAGCAAUAUUACGAUGA | 0.139 ± 0.083 | 0.437 ± 0.098
AUGGAGCAAUAUUACGCCGC | -1.29 ± 0.44 | –
CUGGAGCAAUAUUACGGCAU | -3.26 ± 0.47 | –

— the supplement of paper PMC7877785
